Among the data in publication PMC10786891, “Massively parallel profiling of RNA-targeting CRISPR-Cas13d” are Kd values, retold here.

T1: EsCas13d, nuclease-dead (Eubacterium siraeum, UniProt B0MS50, R295A;H300A;R849A;H854A)
T1 sequence: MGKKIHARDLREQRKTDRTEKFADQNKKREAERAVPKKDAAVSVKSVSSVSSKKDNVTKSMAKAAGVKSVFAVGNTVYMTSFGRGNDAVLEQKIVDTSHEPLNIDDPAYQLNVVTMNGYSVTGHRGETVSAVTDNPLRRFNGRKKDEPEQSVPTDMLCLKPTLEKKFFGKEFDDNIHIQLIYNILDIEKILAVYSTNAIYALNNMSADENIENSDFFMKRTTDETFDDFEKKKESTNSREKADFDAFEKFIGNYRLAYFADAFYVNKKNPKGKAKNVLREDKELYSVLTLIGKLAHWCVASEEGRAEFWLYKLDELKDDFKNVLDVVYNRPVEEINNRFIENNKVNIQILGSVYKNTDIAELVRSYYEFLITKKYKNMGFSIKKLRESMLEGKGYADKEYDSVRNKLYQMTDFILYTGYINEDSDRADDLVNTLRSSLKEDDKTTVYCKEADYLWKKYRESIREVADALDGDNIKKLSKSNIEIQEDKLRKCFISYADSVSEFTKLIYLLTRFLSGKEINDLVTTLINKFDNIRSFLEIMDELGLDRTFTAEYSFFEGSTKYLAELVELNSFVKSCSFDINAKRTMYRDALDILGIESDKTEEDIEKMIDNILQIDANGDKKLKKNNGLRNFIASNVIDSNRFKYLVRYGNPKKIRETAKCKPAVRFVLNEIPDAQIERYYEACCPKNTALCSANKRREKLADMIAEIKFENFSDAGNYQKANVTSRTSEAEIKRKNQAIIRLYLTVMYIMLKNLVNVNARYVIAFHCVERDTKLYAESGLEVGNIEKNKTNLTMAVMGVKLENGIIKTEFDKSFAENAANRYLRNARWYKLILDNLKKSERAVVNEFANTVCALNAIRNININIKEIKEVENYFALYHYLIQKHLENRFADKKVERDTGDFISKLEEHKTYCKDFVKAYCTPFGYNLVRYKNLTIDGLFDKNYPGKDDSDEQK

B1: target 1 C6A,A9U (mixed)
RNA 1: CACCCGUGCAAAAAUGCAGGGGUCUAAAACUGAGCGGAUAACCUCUCUAUGG
RNA 2: GGGAAUGGAUCCACAUCUACGAAUUCGUACCAUAGAGAGGUUUUCAGCUCACCGAGAUCGGAAGAGCACACGU
B2: target 1 insG 3' of 20,insG 3' of 8 (mixed)
RNA 1: CACCCGUGCAAAAAUGCAGGGGUCUAAAACUGAGCGGAUAACCUCUCUAUGG
RNA 2: GGGAAUGGAUCCACAUCUACGAAUUCGUACCAGUAGAGAGGUUAUGCCGCUCACCGAGAUCGGAAGAGCACACGU
B3: target 1 C2A,A9U (mixed)
RNA 1: CACCCGUGCAAAAAUGCAGGGGUCUAAAACUGAGCGGAUAACCUCUCUAUGG
RNA 2: GGGAAUGGAUCCACAUCUACGAAUUCGUACCAUAGAGAGGUUUUCCGCUAACCGAGAUCGGAAGAGCACACGU
B4: target 2 MT 5'PFS GGC 3'PFS AGC (mixed)
RNA 1: CACCCGUGCAAAAUUGCAGGGGUCUAAAACCUUCUCCAAAUUGUUUCAUCCU
RNA 2: GGGAAUGGAUCCACAUCUACGAAUUCGGCAGGAUGAAACAAUUUGGAGAAGAGCAGAUCGGAAGAGCACACGU
B5: target 2 MT 5'PFS AAG 3'PFS UCU (mixed)
RNA 1: CACCCGUGCAAAAUUGCAGGGGUCUAAAACCUUCUCCAAAUUGUUUCAUCCU
RNA 2: GGGAAUGGAUCCACAUCUACGAAUUCAAGAGGAUGAAACAAUUUGGAGAAGUCUAGAUCGGAAGAGCACACGU
B6: target 2 MT 5'PFS GGC 3'PFS AGG (mixed)
RNA 1: CACCCGUGCAAAAUUGCAGGGGUCUAAAACCUUCUCCAAAUUGUUUCAUCCU
RNA 2: GGGAAUGGAUCCACAUCUACGAAUUCGGCAGGAUGAAACAAUUUGGAGAAGAGGAGAUCGGAAGAGCACACGU
B7: target 2 MT 5'PFS AUA 3'PFS UAC (mixed)
RNA 1: CACCCGUGCAAAAUUGCAGGGGUCUAAAACCUUCUCCAAAUUGUUUCAUCCU
RNA 2: GGGAAUGGAUCCACAUCUACGAAUUCAUAAGGAUGAAACAAUUUGGAGAAGUACAGAUCGGAAGAGCACACGU
B8: target 2 MT 5'PFS GGC 3'PFS CAU (mixed)
RNA 1: CACCCGUGCAAAAUUGCAGGGGUCUAAAACCUUCUCCAAAUUGUUUCAUCCU
RNA 2: GGGAAUGGAUCCACAUCUACGAAUUCGGCAGGAUGAAACAAUUUGGAGAAGCAUAGAUCGGAAGAGCACACGU
B9: target 2 MT 5'PFS UCG 3'PFS CUA (mixed)
RNA 1: CACCCGUGCAAAAUUGCAGGGGUCUAAAACCUUCUCCAAAUUGUUUCAUCCU
RNA 2: GGGAAUGGAUCCACAUCUACGAAUUCUCGAGGAUGAAACAAUUUGGAGAAGCUAAGAUCGGAAGAGCACACGU
B10: target 2 MT 5'PFS CAU 3'PFS CCG (mixed)
RNA 1: CACCCGUGCAAAAUUGCAGGGGUCUAAAACCUUCUCCAAAUUGUUUCAUCCU
RNA 2: GGGAAUGGAUCCACAUCUACGAAUUCCAUAGGAUGAAACAAUUUGGAGAAGCCGAGAUCGGAAGAGCACACGU
B11: target 2 MT 5'PFS CAU 3'PFS CCA (mixed)
RNA 1: CACCCGUGCAAAAUUGCAGGGGUCUAAAACCUUCUCCAAAUUGUUUCAUCCU
RNA 2: GGGAAUGGAUCCACAUCUACGAAUUCCAUAGGAUGAAACAAUUUGGAGAAGCCAAGAUCGGAAGAGCACACGU
B12: target 2 MT 5'PFS UUU 3'PFS AAC (mixed)
RNA 1: CACCCGUGCAAAAUUGCAGGGGUCUAAAACCUUCUCCAAAUUGUUUCAUCCU
RNA 2: GGGAAUGGAUCCACAUCUACGAAUUCUUUAGGAUGAAACAAUUUGGAGAAGAACAGAUCGGAAGAGCACACGU
B13: target 2 MT 5'PFS CUU 3'PFS AUU (mixed)
RNA 1: CACCCGUGCAAAAUUGCAGGGGUCUAAAACCUUCUCCAAAUUGUUUCAUCCU
RNA 2: GGGAAUGGAUCCACAUCUACGAAUUCCUUAGGAUGAAACAAUUUGGAGAAGAUUAGAUCGGAAGAGCACACGU
B14: target 2 MT 5'PFS GGC 3'PFS AGA (mixed)
RNA 1: CACCCGUGCAAAAUUGCAGGGGUCUAAAACCUUCUCCAAAUUGUUUCAUCCU
RNA 2: GGGAAUGGAUCCACAUCUACGAAUUCGGCAGGAUGAAACAAUUUGGAGAAGAGAAGAUCGGAAGAGCACACGU
B15: target 2 MT 5'PFS GCU 3'PFS AAU (mixed)
RNA 1: CACCCGUGCAAAAUUGCAGGGGUCUAAAACCUUCUCCAAAUUGUUUCAUCCU
RNA 2: GGGAAUGGAUCCACAUCUACGAAUUCGCUAGGAUGAAACAAUUUGGAGAAGAAUAGAUCGGAAGAGCACACGU
B16: target 2 MT 5'PFS GGC 3'PFS CAG (mixed)
RNA 1: CACCCGUGCAAAAUUGCAGGGGUCUAAAACCUUCUCCAAAUUGUUUCAUCCU
RNA 2: GGGAAUGGAUCCACAUCUACGAAUUCGGCAGGAUGAAACAAUUUGGAGAAGCAGAGAUCGGAAGAGCACACGU
B17: target 2 MT 5'PFS GGC 3'PFS CAC (mixed)
RNA 1: CACCCGUGCAAAAUUGCAGGGGUCUAAAACCUUCUCCAAAUUGUUUCAUCCU
RNA 2: GGGAAUGGAUCCACAUCUACGAAUUCGGCAGGAUGAAACAAUUUGGAGAAGCACAGAUCGGAAGAGCACACGU
B18: target 2 MT 5'PFS UUU 3'PFS AAG (mixed)
RNA 1: CACCCGUGCAAAAUUGCAGGGGUCUAAAACCUUCUCCAAAUUGUUUCAUCCU
RNA 2: GGGAAUGGAUCCACAUCUACGAAUUCUUUAGGAUGAAACAAUUUGGAGAAGAAGAGAUCGGAAGAGCACACGU
B19: target 2 MT 5'PFS GUA 3'PFS UCU (mixed)
RNA 1: CACCCGUGCAAAAUUGCAGGGGUCUAAAACCUUCUCCAAAUUGUUUCAUCCU
RNA 2: GGGAAUGGAUCCACAUCUACGAAUUCGUAAGGAUGAAACAAUUUGGAGAAGUCUAGAUCGGAAGAGCACACGU
B20: target 2 MT 5'PFS CAU 3'PFS CCC (mixed)
RNA 1: CACCCGUGCAAAAUUGCAGGGGUCUAAAACCUUCUCCAAAUUGUUUCAUCCU
RNA 2: GGGAAUGGAUCCACAUCUACGAAUUCCAUAGGAUGAAACAAUUUGGAGAAGCCCAGAUCGGAAGAGCACACGU
B21: target 2 MT 5'PFS GCU 3'PFS CCG (mixed)
RNA 1: CACCCGUGCAAAAUUGCAGGGGUCUAAAACCUUCUCCAAAUUGUUUCAUCCU
RNA 2: GGGAAUGGAUCCACAUCUACGAAUUCGCUAGGAUGAAACAAUUUGGAGAAGCCGAGAUCGGAAGAGCACACGU
B22: target 2 MT 5'PFS GGC 3'PFS CAA (mixed)
RNA 1: CACCCGUGCAAAAUUGCAGGGGUCUAAAACCUUCUCCAAAUUGUUUCAUCCU
RNA 2: GGGAAUGGAUCCACAUCUACGAAUUCGGCAGGAUGAAACAAUUUGGAGAAGCAAAGAUCGGAAGAGCACACGU
B23: target 2 MT 5'PFS UUU 3'PFS AAU (mixed)
RNA 1: CACCCGUGCAAAAUUGCAGGGGUCUAAAACCUUCUCCAAAUUGUUUCAUCCU
RNA 2: GGGAAUGGAUCCACAUCUACGAAUUCUUUAGGAUGAAACAAUUUGGAGAAGAAUAGAUCGGAAGAGCACACGU
B24: target 2 MT 5'PFS UUU 3'PFS AAA (mixed)
RNA 1: CACCCGUGCAAAAUUGCAGGGGUCUAAAACCUUCUCCAAAUUGUUUCAUCCU
RNA 2: GGGAAUGGAUCCACAUCUACGAAUUCUUUAGGAUGAAACAAUUUGGAGAAGAAAAGAUCGGAAGAGCACACGU
B25: target 2 MT 5'PFS GAC 3'PFS CGG (mixed)
RNA 1: CACCCGUGCAAAAUUGCAGGGGUCUAAAACCUUCUCCAAAUUGUUUCAUCCU
RNA 2: GGGAAUGGAUCCACAUCUACGAAUUCGACAGGAUGAAACAAUUUGGAGAAGCGGAGAUCGGAAGAGCACACGU
B26: target 2 MT 5'PFS GGC 3'PFS UAC (mixed)
RNA 1: CACCCGUGCAAAAUUGCAGGGGUCUAAAACCUUCUCCAAAUUGUUUCAUCCU
RNA 2: GGGAAUGGAUCCACAUCUACGAAUUCGGCAGGAUGAAACAAUUUGGAGAAGUACAGAUCGGAAGAGCACACGU
B27: target 2 MT 5'PFS GUA 3'PFS UCG (mixed)
RNA 1: CACCCGUGCAAAAUUGCAGGGGUCUAAAACCUUCUCCAAAUUGUUUCAUCCU
RNA 2: GGGAAUGGAUCCACAUCUACGAAUUCGUAAGGAUGAAACAAUUUGGAGAAGUCGAGAUCGGAAGAGCACACGU

For the data set, the target named is T1, EsCas13d, nuclease-dead. The data set can be described thus: crRNA (strand 1, pre-loaded); Mg2+; 40 mM Tris-HCl pH 7.5, 150 mM NaCl, 6 mM MgCl2, 1 mM DTT, 0.1% Tween-20, 0.2 mg/ml BSA; 25 C; 10 min per concentration, then washed. To be noted: tags: His6-TwinStrep-SUMO cleaved; N-terminal SNAP kept (SNAP-Surface 488); label: 3' end held by stalled T7 RNA polymerase.
B1: the Kd is 7.38 ± 0.22 nM.
B2: binding was characterised by a dissociation constant (Kd) of 40 ± 4 nM.
As for B3, the figure is 8.3 ± 0.4 nM; as for B4, 12.1 ± 1.6 nM; as for B5, 20 ± 6 nM.
As for B6, the Kd was determined as 14.9 ± 1.8 nM.
For B7, the affinity, expressed as Kd, was 7.2 ± 1.6 nM. This Kd is about 2.1-fold lower than that of the molecule before.
In turn, B8 displayed a Kd of 14.4 ± 2 nM.
In turn, B9 showed a Kd of 32 ± 10 nM.
The figure for B10 is 4.07 ± 0.31 nM.
Turning to B11, the Kd was determined as 11.5 ± 1.6 nM.
As for B12, the figure is 7.3 ± 0.8 nM; as for B13, 3.9 ± 0.4 nM.
Consider B14, for which the Kd is 10.4 ± 2 nM.
For the molecule B15, binding was put at a Kd of 12 ± 4 nM.
B16 had a Kd of 12.1 ± 1.4 nM.
As for B17, the figure is 15.8 ± 3.1 nM; as for B18, 7.1 ± 0.9 nM.
B19 displayed a Kd of 18.6 ± 2.7 nM.
B20 registered a Kd of 16 ± 6 nM.
The figure for B21 is 17.9 ± 3.4 nM; for B22 it is 8.9 ± 1.7 nM; for B23 it is 9.9 ± 1.2 nM.
On to B24, for which binding was put at a Kd of 8.9 ± 1.2 nM.
As for B25, the figure is 8.9 ± 1 nM.
For B26, the Kd came out at 18.9 ± 3.5 nM.
Take B27: binding was characterised by a dissociation constant (Kd) of 9.5 ± 0.7 nM.
